# The RNAGym collection of RNA variant scans (doi:10.1073/pnas.2313332121)
# B1: TPR t1 (parent)
# chain: GACCAAUCUGCCCUCAGAGCUCGAGAACAUCUUCGGAUGCAGAGGAGGCAGGCUUCGGUGGCGCGAUAGCGCCAACGUCCUCAACCUCCAAUGCAUCCCACCACAUGAUGAUGCCUGAAGAGCCUUGGUUUUUUG
# Variants of: B1
# Assay: polymerase ribozyme fitness, log enrichment relative to wild type (log ratio); higher = more active; in vitro selection for triplet polymerase activity
# Procedure, shortened: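 Frozen incubation at −7 °C formed the core of a single, triplicate in vitro selection round applied to PCR-built, transcribed mutant libraries of each subunit of a heterodimeric triplet polymerase ribozyme. Extended constructs were gel-excised, captured with streptavidin beads and amplified by RT-PCR, and input and output libraries were Illumina-sequenced with a filter of ≥10 input reads and ≥1 read per output. Fitness is the logarithm of genotype enrichment relative to wild-type enrichment, with inverse-variance-weighted replicate averaging, and the logarithm is base 2.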
row,Variant,polymerase ribozyme fitness (log ratio)
1,GACCAAUCUGCCCUCAGAGCUCGAGAACAUCUUCGGAUGCAGAGGUGGCAGGCUUCGGUGGCGCCAUAGCGCCAACGUCCUCAACCUCCAAUGCAUCCCACCACAUGAUGAUGCCUGAAGAGCCUUGGUUUUUUG,-7.92
2,GUCCAAUCUCCCCUCAGAGCUCGAGAACAUCUUCGGAUGCAGAGGAGGCAGGCUUCGGUGGCGCGAUAGCUCCAACGUCCUCAACCUCCAAUGCAUCCCACCACAUGAUGAUGCCUGAAGCGCCUUGGUUUUUUG,-1.06
3,GACCAAUCUGCCCUCAGAGCUCGAGAACAUCUUCGGAUGCAUAGGAGGCAGGCUUCGGUGGCGCGAUAGCGCCAACGUCCUCAACCUCCAAAGCAUCCCACCACAUGAUGAUGCCUGAAGAGCCUUGGUUUUUUG,-2.25
4,GACCAAUCUGCCCUAAGAGCUCGAGAACAUCUUCGGAUGCAGAGGAGGCAGGCUUCGGUGGCGCGAUAGCCCCAACGUCCUCAACCUCCAAUGCAUGCCACCACAUGAUGAUGCCUUAAGAGCCUUGGUUUUUUG,-5.07
5,GACCAAUCUGCCCUCAGAGCUCGAGAACAUCUUCGGAUGAAGAGGAGGCAGGCUUCGGUGGCGCGAUAGCGCCAACGUCCUCAACCUCCAAUGCAUCCCACCACAUGAUGAUGCCUUAAGAGCCUUGGUUUUUUG,-4.5
6,GACCAAUCUGCCCUCAGAGCUCGAGAACAUCUUCGUAUGCAGAGGAGGCAGGCUUCGGUGGCGCGAUAGCGGCAACGUCCUCAACCUCCAAUGCAUCCCACUACAUGAUGAUGCCUGAUGAGCCUUGGUUUUUUG,-4.07
7,GACCAAUCUGCCCUCAGAGCUCGAGAACAUCUUCGGUUGCAGAGGAGGCAGGCUUCGGUGGCGCGAUAGCGCCAACGUCCUCAACCUCCAAUGCAUCCCACCACAUGAUGAUGCCUGAAGAGCCUUAGUUUUUUG,-2.32
8,GACCAAUCUGCCCUCAGAGCUCGAGAAGAUCUUCGGAUGCAGAGGAGGCAGGCUUCGGUGGCGCGAUAGCGCCAACGUCCUCAACCUCCAAUGCAUCCCAUCACAUGAUGAUGCCUGAAGAGCCUUGGUUUUUUG,-3.08
9,GACCAAUCUGCCCUCAGAGCUCGAGAACAUCUUCGGAUGCAGAGGAGGUAGGCUUCGGUGGCGCGAUAGCGCCAACUUCCUCAACCUCCAAUGCAUCCCACCACAUGAUGAUUCCUGAAGAUCAUUGGUUUUUUG,-3.66
10,GACCAAUCUGCCCUCAGAGCUCGAGAACAUCUUCGGAUGCAGAGGAGGCAGGCUUCGGUGGCUCGAUAGCGCCAACGUCCUCAACCGCCAAUGCAUCCCACCACAUGAUGAUGCCUUAAGAGACUUGGUUUUUUG,-3.97
11,GAUCAAUCUGCCCUCAGAGCUCGAGAACAUCUUCGGAUGCAGAGGAGACAGGCUUCGGUGGCGCGAUAGCGCCAACGUCCUCAACCUCCAAUGCAUCCCACCACAUGAUGAUGCCUGAAGAGCCUUGGUUUUUUG,-1.92
12,GACCAAUCUGCCCUCAGAGCUCGAGAACAUCUUCGGAUGCAGCUGAGGCAGGCUUCGGUGGCGCGAUAGCGCCAACGUCCUCAACCUCCAAUGCAUCCCACCACAUGAUGGUGCCUGAAGAGCCUUGGUUUUUUG,-1.62
13,GACCAAUCUUCCCUCAGAGCUCGAGAACAUCUUCGGAUGCAGAGGACGCAGGCUUCGGUGGCGCGAUAGCGCCAACGUCCUCAACCUCCAAUGCAUCCCACCAUAUGAUGAUGCCUGAAGAGCCUUGGUUUUUUG,-1.69
14,GACCAAUUUGCCCUCAGAGCUCGAGAACAUCUUCGGAUGCAGAGGAGGCAGGCUUCGGUGGCGCGAUAGCGCCAACGUCCUCAACCUCCAAUGCAACCCACCACAUGAUGAUGCCUGAAGAGGCUUGGUUUUUUG,1.65
15,GACCAAUCUGCCCUCAGAGCUCGAGAACGUCUUCGGAUGCAGAGGAGGCAGGCUUCGGUGGCGCGAUAGCGCCAACGUCCUCAACCUCCAAUGCAUCCCACCACAUGAUGAUGCCUGAAGUGCCUUGGUUUUUUG,0.902
16,GACCAAUCUGCCCUCAGAGCUCGAGAACAUCUUCGGAUGCAGAGGAGGCAGGCUUCGGUGGCGCGAUAGCGCUAACGUCCUCAACCUCCAAUGCAUCCCACCACAUGAUGAUGCCUGAAGAGCCUUGGUUUUUUG,0.0933
17,GACCAAUCUGCUCUCAGAGCUCGAGAACAUCUUCGGAUGCAGAGGAGCCAGGCUUCGGUGGCUCGAUAGCGCCAACGUCCUCAACCUCCAAUGCAUCCCACCACAUGAUGAUGCCUGAAGAGCCUUGGUCUUUUG,-1
18,GACCAAUCUGCCCUCAGAGCUCGAGAACAUCUUCGGAUGCAGAGGAGGCAGGCUUCGGAGGCGCGAUAGCGCCAACGUCCUCAACCUCUAAUGCAUCCCACCACAAGAUGAUGCCUGAAGAGCCUUGGUUUUUUG,-0.429
19,GACCAAUCUGCGCUCAGAGUUCGAGAACAUCUUCGGAUGCAGAGGAGGCAGGCUUCGGUGGCGCGAUAGCGCCAACGUCCUCAACCUCCAAUGCAUCCCACCACAUGAUGAUGCCUGAAGAGCCUUGGUUUUUUG,-0.703
20,GACCAAUCGGCCCUCUGAUCUCGAGAACAUCUUCGGGUGCAGUGGAGGCAGGCUUCGGUGGCGCGAUAUCGCCAACGUCCUCAACCUCCAAUGCAUCCCAACACAUGAUGAUGCCUGAAGAGCCUUGGUUUUUUG,-4.92
21,GGCCAAUCUGCCCUCAGAGCUCGAGAACAUCUUCGGAUGCAGAGGAGGCAGGCUUCGGUGGCGCGAUAGCGCUAACGUCCUCAACCUCCAAUGCAUCCCACCACAUGAUGAUAGCUGAUGAGCCUGGGUUUUUUG,-5.02

row,Variant,polymerase ribozyme fitness (log ratio)
1,GACCAAUCUGCCCUCAGAGCUCGAGAACAUCUUGGGAUGCAGAGGAGGCAGGCUUCGGUGGCGCGAUAGCGCGAACGUCCUCAACCUCCAAUGCAUCCCACCACAUGAUGAUGCCAGAAGUGCCUUGGUUUUUUG,-5.9
2,GACCAAUCUACCCUCAGAGCUCGAGAACAUCUUCGGAUGCAGAGGAGGCAGGCUUCGGUGACGCGAUAGCGCCAACGUCCUCAACCUCCAAUGUAUCCCACCACAUGAUGAUGCCUGAAGAGCCUUGGUUUUUUG,-0.166
3,GACCAAUCUGCCCUCAGAGCUCGAGAACAUCUUCGGAUGCAGAGGAGGCAGGCUUCGGUGGCGCGAUAACGCCAACGUCCUCAACCUACAAUGCAUCCCACCACAUGAUGAUGCCUGAAGAGCCUUGGUUUUUUG,-1.98
4,GACCAAUCUGCCCUCAGAGCUCGAGAACAUCUUCGGAUGCAGACGAGGCAGGCUUCGGUGGCGCGAUAUCGCCAGCGUUCUCAACCACCAAUGCAUUCCACCACAUGAUGAUGCCUGAAGAGCCUUGGUUUUUUU,-5.55
5,GACCAAUCUGCCCUCAGAGCUCGAGAACAUCUUCGGAUGCAGAGGAGGCAGGCUUCGGUGACGCGAUAGCGCCAACGUCCGCAGCCUCCAGUGCAUCCCACCACAUGAUGGUGCCUGAAGAGCCUUGGUUUUUUG,-4.48
6,GACCAAUCUGCCCUCAGAGCUCGAGAACAUCUUCGGAUUCAGAGGAGACAGGCUUCGGUGGCGCGAUAGUGCCAACGUCCUCAACCUCCAAUGCAUCCCACCACAUGAUGAUGCCUGAAGAGCCUUGGUUUUUUG,-1.15
7,GACCAAUCUGCCCUCAGAGCUCGAGAACAUCUUCGGAUGCAGAGGAGGCAGGCUUCGGUGGCGCGAUAACGCCAACGUCCUCAACCUCCAAUGCAUCCCACCACAUGAAGAUGCCUGAAGAGCCUUGGUUUUUUG,-5.09
8,GACCAAUCUGCCCUCAGAGCUCGAGAACAUCUUCGGAUGCAGUGGAGGCUGGCUUCGGUGGCGCGAUAGCGCCAACGUCCACAACCUCCAGGGCAUCCCACCACAUGAUGAUGCCUGAAGAGCCUUGGUUUUUUG,-3.02
9,GACCAAUCUGCCCUCAGAGCUCGAGAACAUCUUCGGAUGCAGAGGAGGCAGGCUUCGGUGGCGCGAUAGCGCCAAGGUCCUCAACCUCCAAUGCAUCCCACCACAUGAUGAUGCCUGAAGAGCCUUGGUAUUUUG,-0.718
10,GACCAAUCUGCCCUCAGAGCUCGAGAACAUCUUCGGUUGCAGAGGAGGCAGGCUUCGGUGGCGCGAUACCGUCAACGUCCUCAAUCUCCAAUGCAUCCCACCACAUGAUGAUGCCUGAAGAGCCUUGGUUUUUUG,-1.89
11,GACCAAUCUGCCCUCAGAGCUCGAGAACAUCUUCGGAUGCAAAGGAGGCAGGCUUCGGUGGCGCGAUAGCGCCAACGUCCUCAACCUCCAAUGCAUCCCACCACAUGAUGAUGCCUGAAGAGCCUUGGGUUUUUG,-2.39
12,GACCAAUCUGCCCUCAGAGCUCGAGAACAUCUUCGGAUGCAGAGGAGGCAGGCUUCGGUGGCGCGAUAGCGACAACGUCUUCAACCUCCAAUGCAUCCCACCACAUGAUGAUGCCUGAAGAGCCUUGGUUUUUUG,0.231
13,GACCAAUCUGCCCGCAGAGCUCGAGAACAUCUUCGGAUGAAGAGGAGGCAGGCUUCGGUGGUGCGAUAGCGCCAACGUCCUCAACCUCCAAUGCAUCCCACCACAUGAUGAUGCCUGAAGAGCCUUGGUUUUUUG,-3.06
14,GACCAAUCUGCCCUCAGAGCUCGAGAACAUGUUCGGAUGCAGAGGAGGCAGGCUCCGGUAGCGCGAUAGCGCCAACGUCCUCAACCUCCAAUGCAUCCCACCACAUGAUGAUGCCCGAAGAGCCUUGGUUUUUUG,-6.66
15,GACCAAUCUGCCCUCAGAGCUCGAGAACAUCUUCGGAUGCAGAGGAGGCAGGCUUCGGUGGCGCGAUAGUGCCUACGUCCUCAACCUCCAAUGCAUCCCACCACAUGAUGAUGCCUGAAGAGCCUUGGUUUUUUG,-0.47
16,GACCAAUCUGCCCUCAGAGCUCGAGAACAUCUUCGGAUGCAGAGGAGGCAGGCUUCGGUGGCGCGAUAGCGCCAACGUCCUCAACCUCCAAUGCAUCCCACCACAUGAUGAUGCCUGAUGAGCCUUGCUUUUUUG,-2.46
17,GACCAUUCUGCCCUCAGAGCUCGAGAACAUCUUCGGAUGCAUAGGAGGCAGGCUUCGGUGGCGCGAUAGCGCCAACGUCCUCAACCACCAAUGAAUCCCACCACAUGAUGAUGCCUGAAGAGGCUUGGUUUUUUG,-1.12
18,GACCAAUCUGCCCUCAGAGCUCGAGAACAUCUUCGGAUGCAGAGGAGGCAGGCUUCGGUGGCGCGAUAGCGCCAACGUCCUCAACCUCCAAUGCAUCCCACCACAUGAUGAUGCCUGAAGCGCCUUGGUUGUUUG,1.12
19,GACCAAUCUGCCCUCAGAGCUCGAGAACAUCUUCGGAUGCAGAGGAGGCAGGCUUUGGUGGCGCGAUAGCGCCAACGUCCUCAACCUCCAAUGCAUCCCACCACAGGAUGAUGCCCGAAGAGCCUUGGUUUUUUG,-3.48
20,GACCAAUCUGCCCUCAGAGCUCGAGAACAUCUUCGGAUGCAGAGGAGGCAGGCUUCGGUUGCGCGAUAGCGCCAACGUCCUCAACCUCCAAUGCAUCCCACCACAUGAUGUUGCCUGAAGAGCCUUGGUUUUUUG,-2.87
21,GACCAAUCUGCCCUCAGAGCUCGAGAACAUCUUCGGAUGCCGAGGAGGCAGGCUUCGGUGGCGCGAUACCGCCAACGUCCUCAACCUCCAAUGCAUCCCACCACAUGAUGAUGACUGAAGAGCCUUGGUUUUUUG,-3.84
